Starred links: 1 amine or outer side, 2 acyl side, 3 side chain; linkers in the order of their positions; H or OH if unused. Positions of bridges follow the written chain, without caps; N, C: chain ends. Groups on a side chain read outwards from the residue. Primed or numbered codes have the meaning given here. No end group written: not given here. *: point of attachment. dpeg″ = —[CO(CH2)O(CH2)2O(CH2)NH]— spacer unit, O=C(COCCOCN[*:1])[*:2]; C20 diacid = O=C(O)CCCCCCCCCCCCCCCCCCC(=O)*; C18 diacid = O=C(O)CCCCCCCCCCCCCCCCC(=O)*; γGlu = O=C(O)[C@H](CCC(=O)[*:2])N[*:1]; Palmitoyl = CCCCCCCCCCCCCCCC(=O)*

Data on six molecules can be found in US20200115430A1 (I2O THERAPEUTICS, published 2020).

First the molecules themselves.
T1: human calcitonin receptor (human, UniProt P30988 25-474)
T1 sequence (looked up): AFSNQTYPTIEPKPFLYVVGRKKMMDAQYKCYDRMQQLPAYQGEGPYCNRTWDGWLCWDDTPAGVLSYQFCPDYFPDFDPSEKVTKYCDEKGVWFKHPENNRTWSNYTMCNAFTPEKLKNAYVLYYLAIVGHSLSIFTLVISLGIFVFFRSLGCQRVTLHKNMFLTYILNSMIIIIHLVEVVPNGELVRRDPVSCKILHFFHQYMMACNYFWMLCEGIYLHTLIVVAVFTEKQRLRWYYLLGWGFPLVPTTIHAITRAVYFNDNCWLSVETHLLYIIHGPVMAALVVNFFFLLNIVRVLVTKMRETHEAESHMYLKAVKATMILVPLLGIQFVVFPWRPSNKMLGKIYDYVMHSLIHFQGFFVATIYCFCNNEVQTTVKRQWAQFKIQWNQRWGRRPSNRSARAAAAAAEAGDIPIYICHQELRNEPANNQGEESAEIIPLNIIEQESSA

T2: human amylin 3 receptor (human, UniProt P30988 25-474; O60896 24-148)
T2 sequence (looked up) 1: T1 sequence (looked up)
T2 sequence (looked up) 2: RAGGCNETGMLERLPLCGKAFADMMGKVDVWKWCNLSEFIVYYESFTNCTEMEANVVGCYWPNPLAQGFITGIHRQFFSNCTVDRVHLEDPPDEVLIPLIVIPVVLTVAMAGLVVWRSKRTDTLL

B1: Compound A115 (peptide)
peptide: K(C20 diacid)CNTSTCATQRLANELHKSSNNFGPILPPTKVGSETY-NH2
modifications: disulfide 2-7; N-terminus assumed
SMILES: CC[C@H](C)[C@H](NC(=O)[C@@H]1CCCN1C(=O)CNC(=O)[C@H](Cc1ccccc1)NC(=O)[C@H](CC(N)=O)NC(=O)[C@H](CC(N)=O)NC(=O)[C@H](CO)NC(=O)[C@H](CO)NC(=O)[C@H](CCCCN)NC(=O)[C@H](Cc1c[nH]cn1)NC(=O)[C@H](CC(C)C)NC(=O)[C@H](CCC(=O)O)NC(=O)[C@H](CC(N)=O)NC(=O)[C@H](C)NC(=O)[C@H](CC(C)C)NC(=O)[C@H](CCCNC(=N)N)NC(=O)[C@H](CCC(N)=O)NC(=O)[C@@H](NC(=O)[C@H](C)NC(=O)[C@@H]1CSSC[C@H](NC(=O)[C@@H](N)CCCCNC(=O)CCCCCCCCCCCCCCCCCCC(=O)O)C(=O)N[C@@H](CC(N)=O)C(=O)N[C@@H]([C@@H](C)O)C(=O)N[C@@H](CO)C(=O)N[C@@H]([C@@H](C)O)C(=O)N1)[C@@H](C)O)C(=O)N[C@@H](CC(C)C)C(=O)N1CCC[C@H]1C(=O)N1CCC[C@H]1C(=O)N[C@H](C(=O)N[C@@H](CCCCN)C(=O)N[C@H](C(=O)NCC(=O)N[C@@H](CO)C(=O)N[C@@H](CCC(=O)O)C(=O)N[C@H](C(=O)N[C@@H](Cc1ccc(O)cc1)C(N)=O)[C@@H](C)O)C(C)C)[C@@H](C)O
B2: Compound A107 (peptide)
peptide: SCNTSTCATQRLK([γGlu-Palmitoyl])NELHKSSNNFGPILPPTKVGSETY-NH2
modifications: disulfide 2-7; N-terminus assumed
SMILES: CCCCCCCCCCCCCCCC(=O)N[C@@H](CCC(=O)NCCCC[C@H](NC(=O)[C@H](CC(C)C)NC(=O)[C@H](CCCNC(=N)N)NC(=O)[C@H](CCC(N)=O)NC(=O)[C@@H](NC(=O)[C@H](C)NC(=O)[C@@H]1CSSC[C@H](NC(=O)[C@@H](N)CO)C(=O)N[C@@H](CC(N)=O)C(=O)N[C@@H]([C@@H](C)O)C(=O)N[C@@H](CO)C(=O)N[C@@H]([C@@H](C)O)C(=O)N1)[C@@H](C)O)C(=O)N[C@@H](CC(N)=O)C(=O)N[C@@H](CCC(=O)O)C(=O)N[C@@H](CC(C)C)C(=O)N[C@@H](Cc1c[nH]cn1)C(=O)N[C@@H](CCCCN)C(=O)N[C@@H](CO)C(=O)N[C@@H](CO)C(=O)N[C@@H](CC(N)=O)C(=O)N[C@@H](CC(N)=O)C(=O)N[C@@H](Cc1ccccc1)C(=O)NCC(=O)N1CCC[C@H]1C(=O)N[C@H](C(=O)N[C@@H](CC(C)C)C(=O)N1CCC[C@H]1C(=O)N1CCC[C@H]1C(=O)N[C@H](C(=O)N[C@@H](CCCCN)C(=O)N[C@H](C(=O)NCC(=O)N[C@@H](CO)C(=O)N[C@@H](CCC(=O)O)C(=O)N[C@H](C(=O)N[C@@H](Cc1ccc(O)cc1)C(N)=O)[C@@H](C)O)C(C)C)[C@@H](C)O)[C@@H](C)CC)C(=O)O
B3: Compound A109 (peptide)
peptide: K([γGlu-C18 diacid])CNTSTCATSRLANFLQKSSNNFGPILPPTKVGSETY-NH2
modifications: disulfide 2-7; N-terminus assumed
SMILES: CC[C@H](C)[C@H](NC(=O)[C@@H]1CCCN1C(=O)CNC(=O)[C@H](Cc1ccccc1)NC(=O)[C@H](CC(N)=O)NC(=O)[C@H](CC(N)=O)NC(=O)[C@H](CO)NC(=O)[C@H](CO)NC(=O)[C@H](CCCCN)NC(=O)[C@H](CCC(N)=O)NC(=O)[C@H](CC(C)C)NC(=O)[C@H](Cc1ccccc1)NC(=O)[C@H](CC(N)=O)NC(=O)[C@H](C)NC(=O)[C@H](CC(C)C)NC(=O)[C@H](CCCNC(=N)N)NC(=O)[C@H](CO)NC(=O)[C@@H](NC(=O)[C@H](C)NC(=O)[C@@H]1CSSC[C@H](NC(=O)[C@@H](N)CCCCNC(=O)CC[C@H](NC(=O)CCCCCCCCCCCCCCCCC(=O)O)C(=O)O)C(=O)N[C@@H](CC(N)=O)C(=O)N[C@@H]([C@@H](C)O)C(=O)N[C@@H](CO)C(=O)N[C@@H]([C@@H](C)O)C(=O)N1)[C@@H](C)O)C(=O)N[C@@H](CC(C)C)C(=O)N1CCC[C@H]1C(=O)N1CCC[C@H]1C(=O)N[C@H](C(=O)N[C@@H](CCCCN)C(=O)N[C@H](C(=O)NCC(=O)N[C@@H](CO)C(=O)N[C@@H](CCC(=O)O)C(=O)N[C@H](C(=O)N[C@@H](Cc1ccc(O)cc1)C(N)=O)[C@@H](C)O)C(C)C)[C@@H](C)O
B4: Compound A119 (peptide)
peptide: K([γGlu-C20 diacid])CNTSTCATQRLANELHKSSNNFGPILPPTKVGSETY-NH2
modifications: disulfide 2-7; N-terminus assumed
SMILES: CC[C@H](C)[C@H](NC(=O)[C@@H]1CCCN1C(=O)CNC(=O)[C@H](Cc1ccccc1)NC(=O)[C@H](CC(N)=O)NC(=O)[C@H](CC(N)=O)NC(=O)[C@H](CO)NC(=O)[C@H](CO)NC(=O)[C@H](CCCCN)NC(=O)[C@H](Cc1c[nH]cn1)NC(=O)[C@H](CC(C)C)NC(=O)[C@H](CCC(=O)O)NC(=O)[C@H](CC(N)=O)NC(=O)[C@H](C)NC(=O)[C@H](CC(C)C)NC(=O)[C@H](CCCNC(=N)N)NC(=O)[C@H](CCC(N)=O)NC(=O)[C@@H](NC(=O)[C@H](C)NC(=O)[C@@H]1CSSC[C@H](NC(=O)[C@@H](N)CCCCNC(=O)CC[C@H](NC(=O)CCCCCCCCCCCCCCCCCCC(=O)O)C(=O)O)C(=O)N[C@@H](CC(N)=O)C(=O)N[C@@H]([C@@H](C)O)C(=O)N[C@@H](CO)C(=O)N[C@@H]([C@@H](C)O)C(=O)N1)[C@@H](C)O)C(=O)N[C@@H](CC(C)C)C(=O)N1CCC[C@H]1C(=O)N1CCC[C@H]1C(=O)N[C@H](C(=O)N[C@@H](CCCCN)C(=O)N[C@H](C(=O)NCC(=O)N[C@@H](CO)C(=O)N[C@@H](CCC(=O)O)C(=O)N[C@H](C(=O)N[C@@H](Cc1ccc(O)cc1)C(N)=O)[C@@H](C)O)C(C)C)[C@@H](C)O
B5: Compound A120 (peptide)
peptide: K(C18 diacid)CNTSTCATQRLANELHKSSNNFGPILPPTKVGSETY-NH2
modifications: disulfide 2-7; N-terminus assumed
SMILES: CC[C@H](C)[C@H](NC(=O)[C@@H]1CCCN1C(=O)CNC(=O)[C@H](Cc1ccccc1)NC(=O)[C@H](CC(N)=O)NC(=O)[C@H](CC(N)=O)NC(=O)[C@H](CO)NC(=O)[C@H](CO)NC(=O)[C@H](CCCCN)NC(=O)[C@H](Cc1c[nH]cn1)NC(=O)[C@H](CC(C)C)NC(=O)[C@H](CCC(=O)O)NC(=O)[C@H](CC(N)=O)NC(=O)[C@H](C)NC(=O)[C@H](CC(C)C)NC(=O)[C@H](CCCNC(=N)N)NC(=O)[C@H](CCC(N)=O)NC(=O)[C@@H](NC(=O)[C@H](C)NC(=O)[C@@H]1CSSC[C@H](NC(=O)[C@@H](N)CCCCNC(=O)CCCCCCCCCCCCCCCCC(=O)O)C(=O)N[C@@H](CC(N)=O)C(=O)N[C@@H]([C@@H](C)O)C(=O)N[C@@H](CO)C(=O)N[C@@H]([C@@H](C)O)C(=O)N1)[C@@H](C)O)C(=O)N[C@@H](CC(C)C)C(=O)N1CCC[C@H]1C(=O)N1CCC[C@H]1C(=O)N[C@H](C(=O)N[C@@H](CCCCN)C(=O)N[C@H](C(=O)NCC(=O)N[C@@H](CO)C(=O)N[C@@H](CCC(=O)O)C(=O)N[C@H](C(=O)N[C@@H](Cc1ccc(O)cc1)C(N)=O)[C@@H](C)O)C(C)C)[C@@H](C)O

The target of one assay is T1, human calcitonin receptor. The assay is described as follows: cell-based or functional assay.
B1: the “pEC50 (cAMP accumulation), 0% HSA” value came to 11.5 pEC50; the “pEC50 (cAMP accumulation), 0.1% HSA” value is 9.9 pEC50; the “pEC50 (cAMP accumulation), 4% HSA” value was found to be 8.5 pEC50.
For K([dpeg″-dpeg″-γGlu-C18 diacid])CNTSTCATQRLANELHKSSNNFGPILPPTKVGSETY-NH2 (disulfide 2-7) [Compound A113], in that order: 11.3 pEC50, 9.7 pEC50 and 8.1 pEC50.
Turning to B2, the “pEC50 (cAMP accumulation), 0% HSA” value was 11.5 pEC50; the “pEC50 (cAMP accumulation), 0.1% HSA” value came out at 10.5 pEC50; the “pEC50 (cAMP accumulation), 4% HSA” value turned out to be 9 pEC50.
Turning to B3, the “pEC50 (cAMP accumulation), 0% HSA” value worked out at 11.7 pEC50; the “pEC50 (cAMP accumulation), 0.1% HSA” value stood at 10.5 pEC50; the “pEC50 (cAMP accumulation), 4% HSA” value came out at 9 pEC50.
On to B4, for which the “pEC50 (cAMP accumulation), 0% HSA” value was found to be 11.2 pEC50; the “pEC50 (cAMP accumulation), 0.1% HSA” value was 9.5 pEC50; the “pEC50 (cAMP accumulation), 4% HSA” value worked out at 7.9 pEC50.
As for B5, the “pEC50 (cAMP accumulation), 0% HSA” value was found to be 10.3 pEC50; the “pEC50 (cAMP accumulation), 0.1% HSA” value turned out to be 8.9 pEC50; the “pEC50 (cAMP accumulation), 4% HSA” value stood at 7.4 pEC50.

A further assay addresses T2, human amylin 3 receptor. Briefly: cell-based or functional assay.
For B1, the “pEC50 (cAMP accumulation), 0% HSA” value is 12.3 pEC50; the “pEC50 (cAMP accumulation), 0.1% HSA” value was found to be 10.7 pEC50; the “pEC50 (cAMP accumulation), 4% HSA” value stood at 9.4 pEC50.
For K([dpeg″-dpeg″-γGlu-C18 diacid])CNTSTCATQRLANELHKSSNNFGPILPPTKVGSETY-NH2 (disulfide 2-7) [Compound A113], in that order: 12.3 pEC50, 10.6 pEC50 and 9 pEC50.
Regarding B2, the “pEC50 (cAMP accumulation), 0% HSA” value amounted to 12.5 pEC50; the “pEC50 (cAMP accumulation), 0.1% HSA” value worked out at 11.6 pEC50; the “pEC50 (cAMP accumulation), 4% HSA” value was determined as 10.3 pEC50.
In the case of B3, the “pEC50 (cAMP accumulation), 0% HSA” value came out at 12.2 pEC50; the “pEC50 (cAMP accumulation), 0.1% HSA” value turned out to be 11.1 pEC50; the “pEC50 (cAMP accumulation), 4% HSA” value is 9.6 pEC50.
With B4, the “pEC50 (cAMP accumulation), 0% HSA” value came out at 11.9 pEC50; the “pEC50 (cAMP accumulation), 0.1% HSA” value is 10.2 pEC50; the “pEC50 (cAMP accumulation), 4% HSA” value stood at 8.5 pEC50.
For B5, in that order: 11.4 pEC50, 9.7 pEC50 and 8.4 pEC50.
